Measurements: the RNAGym collection of RNA variant scans (doi:10.7554/elife.80360)

B1: HDV Ribozyme (parent)
chain: GGCCGGCAUGGUCCCAGCCUCCUCGCUGGCGCCGGCUGGGCAACAUUCCGAGGGGACCGUCCCCUCGGUAAUGGCGAAUGGGACCCA

Variants of: B1
Test: self-cleavage, relative activity (ratio to wild type); higher = more cleavage; co-transcriptional

In order of falling self-cleavage:
1. C3G G5C  1.5
2. C26U G53U  1.22
3. U27G A70G  1.14
4. U23A G55C  1.12
5. A56U C64U  1.07
6. G55C G67C  1.06
7. C41A U60C  1.05
8. C26U C58A  1.03
9. C61A  1.02
10. G68A A87G  0.995
11. G55U C66A  0.986
12. U12G C57A  0.985
13. U79A A87U  0.98
14. U60C C63U  0.98
15. C48G U69A  0.956
16. C26U A51G  0.95
17. A43C G76U  0.95
18. C48A G55U  0.933
19. G55A C57A  0.927
20. C14U C63U  0.927
21. G50A C58U  0.919
22. A56U C86U  0.906
23. U27A C61A  0.906
24. G54U C85G  0.888
25. G10U C86U  0.867
26. C26A G53A  0.845
27. G52U G55U  0.822
28. G76A A78G  0.816
29. C48U G54A  0.813
30. G55A G73A  0.812
31. A43G C48A  0.81
32. C26A U60C  0.81
33. U46G U47A  0.8
34. C26A G52U  0.798
35. G50C G67U  0.795
36. A8U A77G  0.779
37. G54U C63G  0.749
38. U60A C61A  0.742
39. G53U A78G  0.739
40. C7A C58U  0.731
41. C57U U79G  0.73
42. G40A C44A  0.692
43. C3U A8U  0.656
44. A16C U65A  0.65
45. U23G G50A  0.614
46. C14G G55A  0.59
47. U47C C85A  0.587
48. C66G U72A  0.587
49. G59C G73C  0.575
50. A42G G54A  0.567
51. C30A C85U  0.554
52. C3U A83G  0.554
53. C26G C64A  0.554
54. G11A G52U  0.548
55. G5C C26A  0.508
56. G5A U27A  0.504
57. C26U G73U  0.502
58. C3U A43U  0.496
59. G50A G74U  0.483
60. C62U A78G  0.475
61. G59U A77U  0.47
62. U79C A87G  0.47
63. C14A A45U  0.467
64. A42G A51U  0.464
65. C49A A77G  0.458
66. G1U G38A  0.422
67. A51C C75G  0.415
68. C30A G68A  0.411
69. G25U A45G  0.401
70. G11C C48G  0.399
71. G31U U69G  0.386
72. C3U G10U  0.372
73. C4G C13U  0.369
74. G39C A56G  0.356
75. G35U C64A  0.351
76. C18U A77C  0.342
77. G11A C48U  0.326
78. C22U A45U  0.325
79. C15U A42U  0.322
80. C22A G54U  0.317
81. A42C A70U  0.312
82. C32A G76U  0.302
83. G17C G68A  0.297
84. G6C A87G  0.288
85. G34C G50A  0.287
86. G53A A78U  0.277
87. G6A A71C  0.269
88. A8C G74C  0.269
89. C24A G80C  0.262
90. A45C G81U  0.262
91. C32U G73C  0.261
92. C64U C75U  0.252
93. G25A G68U  0.247
94. A16G G82U  0.237
95. U20C G25C  0.227
96. C19U G55A  0.225
97. C36A C58U  0.222
98. C33A G54C  0.222
99. U9G G28C  0.222
100. A70U C75U  0.219
101. C32G G53C  0.213
102. C19U G54C  0.2
103. A43U U69G  0.199
104. G6C C62U  0.193
105. C14G C36A  0.192
106. G2A G55A  0.191
107. G67C G80C  0.189
108. U27G C32A  0.185
109. C36A C85G  0.18
110. G6A A77U  0.18
111. G10C G25C  0.178
112. G50A C75U  0.178
113. U27C G39A  0.175
114. C33G C63U  0.173
115. C13A G82C  0.17
116. U37A A87C  0.17
117. C14G G82A  0.158
118. G11A G80C  0.158
119. G34U G35C  0.154
120. G6C C13G  0.151
121. G52A C75U  0.147
122. G34C A45G  0.147
123. C13A C85U  0.141
124. G5C U79C  0.141
125. C18A A78G  0.131
126. G1C A16C  0.128
127. C32A A71G  0.128
128. C19G G52C  0.121
129. G28A C64A  0.121
130. A42C C49U  0.115
131. G28A G29U  0.111
132. G38A C66G  0.109
133. G31C G74C  0.106
134. G31U C36A  0.106
135. G35A G81U  0.105
136. G29U G50A  0.104
137. U23A G29C  0.0923
138. C13G G31A  0.0923
139. C4G G80C  0.0906
140. G34U A77G  0.086
141. G54A G80C  0.0831
142. C3G C33A  0.0817
143. G5C C13A  0.0755
144. G11C G38C  0.0755
145. U20G C62G  0.0755
146. C18G C24A  0.0755
147. C24G U37A  0.0674
148. G11U C36G  0.0615
149. C18A A56C  0.0573
150. A16C C32A  0.0554
151. U9C C19G  0.0519
152. C4G C24G  0.0426
153. C19G G29A  0.0378
154. C4A C21U  0.0346
155. G25A A78C  0.0302
156. G28A G81U  0.0287
157. G11A C30G  0.0225
158. U20G U60A  0
159. U12A A45U  0
160. U12A U37A  0
161. U27A G38A  0
162. G1A G50A  0
163. C7G C41A  0
164. C4A C32G  0
165. U12G C21A  0
166. C32A C41G  0
167. G1A A51G  0
